Series [1] concerns the target K. lactis Ndc10 DI–III (residues 1–534), purified (Kluyveromyces lactis). The series can be described thus: AUC.
Series [2] concerns the target T1, Ndc10 DV (Kluyveromyces lactis, UniProt Q6CPM4 631-736).
T1 sequence: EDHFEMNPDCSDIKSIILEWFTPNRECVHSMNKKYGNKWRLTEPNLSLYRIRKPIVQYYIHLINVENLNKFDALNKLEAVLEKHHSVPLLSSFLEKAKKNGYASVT
In words: EMSA.

In series [3] the target is T2, Ndc10 full-length (Kluyveromyces lactis, UniProt Q6CPM4 1-736).
T2 sequence: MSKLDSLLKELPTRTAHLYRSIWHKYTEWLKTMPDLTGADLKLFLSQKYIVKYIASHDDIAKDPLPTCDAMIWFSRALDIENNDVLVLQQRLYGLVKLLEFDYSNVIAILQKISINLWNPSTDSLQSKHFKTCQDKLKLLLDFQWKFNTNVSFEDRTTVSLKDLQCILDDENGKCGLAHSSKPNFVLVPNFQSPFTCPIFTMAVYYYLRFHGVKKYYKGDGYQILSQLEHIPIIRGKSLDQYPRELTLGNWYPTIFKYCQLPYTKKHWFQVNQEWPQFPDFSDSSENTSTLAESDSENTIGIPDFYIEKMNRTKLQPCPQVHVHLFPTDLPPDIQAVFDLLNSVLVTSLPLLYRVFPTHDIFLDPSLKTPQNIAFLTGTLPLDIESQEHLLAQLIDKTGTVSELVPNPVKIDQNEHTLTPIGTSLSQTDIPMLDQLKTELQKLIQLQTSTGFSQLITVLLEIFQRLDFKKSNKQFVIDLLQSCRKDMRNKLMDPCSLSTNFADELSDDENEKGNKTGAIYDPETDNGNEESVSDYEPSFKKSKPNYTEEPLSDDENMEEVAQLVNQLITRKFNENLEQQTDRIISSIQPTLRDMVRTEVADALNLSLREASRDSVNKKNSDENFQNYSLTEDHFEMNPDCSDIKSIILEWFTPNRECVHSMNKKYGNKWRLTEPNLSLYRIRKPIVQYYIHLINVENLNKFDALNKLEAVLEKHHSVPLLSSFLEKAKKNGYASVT
In words: fluorescence anisotropy.

In series [4] the target is T3, Ndc10 DI-III (Kluyveromyces lactis, UniProt Q6CPM4 1-534).
T3 sequence: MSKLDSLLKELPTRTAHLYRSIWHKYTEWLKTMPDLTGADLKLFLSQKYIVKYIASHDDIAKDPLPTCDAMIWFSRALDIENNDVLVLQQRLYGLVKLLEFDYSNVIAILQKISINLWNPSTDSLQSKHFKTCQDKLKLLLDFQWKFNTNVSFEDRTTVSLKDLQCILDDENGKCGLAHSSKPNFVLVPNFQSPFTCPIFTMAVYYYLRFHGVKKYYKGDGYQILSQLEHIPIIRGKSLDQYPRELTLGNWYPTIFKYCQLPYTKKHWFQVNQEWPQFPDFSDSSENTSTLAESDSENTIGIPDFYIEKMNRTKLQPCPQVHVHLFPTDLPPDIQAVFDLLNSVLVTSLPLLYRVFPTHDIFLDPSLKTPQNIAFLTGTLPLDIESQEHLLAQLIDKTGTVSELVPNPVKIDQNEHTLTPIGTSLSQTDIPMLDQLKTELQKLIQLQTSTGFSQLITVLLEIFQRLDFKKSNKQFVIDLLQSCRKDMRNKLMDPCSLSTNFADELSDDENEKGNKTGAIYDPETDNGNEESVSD
The series can be described thus: EMSA. (In general: A gel shift assay detects complexes by their altered migration in electrophoresis.)

The target of series [5] is T4, Ndc10 DI-II (Kluyveromyces lactis, UniProt Q6CPM4 1-403).
T4 sequence: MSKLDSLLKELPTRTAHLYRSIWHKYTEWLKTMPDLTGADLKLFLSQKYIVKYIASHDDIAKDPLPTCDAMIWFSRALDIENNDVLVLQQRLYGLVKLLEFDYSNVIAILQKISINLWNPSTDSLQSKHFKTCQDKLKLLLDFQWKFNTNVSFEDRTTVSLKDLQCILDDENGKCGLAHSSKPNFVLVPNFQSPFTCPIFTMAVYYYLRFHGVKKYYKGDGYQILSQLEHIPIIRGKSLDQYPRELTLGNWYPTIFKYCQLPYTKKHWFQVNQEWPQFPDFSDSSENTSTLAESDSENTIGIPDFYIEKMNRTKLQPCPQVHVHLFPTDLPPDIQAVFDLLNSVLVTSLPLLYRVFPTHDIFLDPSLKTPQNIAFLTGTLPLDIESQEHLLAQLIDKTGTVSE
In words: ITC. On the technique in general: ITC needs no label: the signal is the heat of the interaction.

Turning to “K. lactis Ndc10 DI–III (residues 1–534), purified (domain or fragment)”, in series [1], the stoichiometry N is 2.

B1: 30 bp CEN1 CDEIII (dsDNA)
DNA 1: TGCTTTATGTTTCCGAAAATTATTTTATTA
DNA 2: TAATAAAATAATTTTCGGAAACATAAAGCA
For B1, the binding result in series [2] is “no binding”; in series [3] it was “binds”; in series [4] it was “binds”; in series [5], “binds”.

Usually stoichiometry N stands for the number of molecules, sites or subunits per partner or assembly.

Source of the values: PMC3252399.
